# According to PMC6770517, “Insight into the Antifungal Mechanism of Action of Human RNase N-terminus Derived Peptides” (International Journal of Molecular Sciences, 2019):
# B1: hRNase3: human ribonuclease 3 of the RNaseA superfamily, parental protein of RN3 (protein, UniProt P12724 28-160, looked up)
# Eosinophil cationic protein: RPPQFTRAQWFAIQHISLNPPRCTIAMRAINNYRWRCKNQNTFLRTTFANVVNVCGNQSIRCPHNRTLNNCHRSRFRVPLLHCDLINPGAQNISNCTYADRPGRRFYVVACDNRDPRDSPRYPVVPVHLDTTI
# What was measured:
# [1] = system: C. albicans cells; experiment: Minimal agglutination activity (MAC); format: cell-based, Candida albicans (ATCC 90028); settings: protein tested up to 20 μM
# Experimental: C. albicans cells were grown at 30 °C to an OD592 of 1.0, diluted 10 times, centrifuged at 5000× g for 2 min, and resuspended in 1× PBS. An aliquot of 100 μL of the cellular suspension was treated with increasing peptide concentrations (from 0.01 to 20 μM) and incubated at 30 °C for 1 h. The aggregation behavior was observed by visual inspection, and the agglutinating activity is expressed as the minimum agglutinating concentration of the sample tested, as previously described. Images were taken using a 50× stereoscope microscope.
# [2] = system: C. albicans cells; experiment: Cell binding assay (supernatant SDS-PAGE); set-up: species or system Candida albicans (ATCC 90028); settings: 1 μM, PBS, 30 °C, 15, 30 and 60 min; unbound fraction by SDS-PAGE
# Experimental: (§1) C. albicans was cultured overnight in Sabouraud Dextrose broth at 30 °C, sub-cultured the next day and grown to an optical density of 0.4 at 592 nm (mid log-phase). Cells were washed twice in PBS and adjusted to 2 × 10^6 cells/mL. Cells and yeast β-D-Glucan (0.4 mg/mL) (Sigma) were respectively incubated in 100 μL of PBS at 30 °C with proteins and peptides at 1 μM final concentration during different periods of time up to 1 h. Following, the samples were centrifuged at 12,000× g. The supernatant samples were concentrated, and the presence of the proteins and peptides was checked by 15–18% SDS-PAGE and Coomassie Blue staining. Reference protein controls were treated following the same protocol in the absence of cells.
# [3] = β-D-Glucan binding assay (supernatant SDS-PAGE); set-up: species or system yeast; settings: β-D-Glucan 0.4 mg/mL, 1 μM, PBS, 30 °C, up to 1 h; unbound fraction by SDS-PAGE
# Experimental: as §1
molecule,measurement,setting,value
B1,agglutination of C. albicans by the parental hRNase,[1],able to agglutinate C. albicans
same,binding to C. albicans cell wall,[2],able to bind to the C. albicans cell wall
same,binding to main cell wall component (β-D-Glucan),[3],positive binding
